Measured values: patent US10154881B2, “Methods and compositions for tissue adhesives” (ARIZONA BOARD OF REGENTS FOR AND ON BEHALF OF ARIZONA STATE …, priority 2012, dated 2018)
Several values for one entry are separate records, joined by “and”; a condition that tells them apart may be missing. Equal entries are not always repeated.

Experiment: Determination of transition temperature (Tt) of ELPs by absorbance at 610 nm
Format: physicochemical
Conditions: 0.5× PBS; temperature at which absorbance at 610 nm reaches 50% of maximum
Method: The transition temperatures (Tt) of C8ELP and C12ELP were characterized by monitoring the absorbance at 610 nm as a function of temperature with an UV-visible spectrophotometer (Beckman DU530) in 0.5× phosphate-buffered solution (PBS). Briefly, 1 ml of C8ELP (0.5 mg/ml in 0.5×PBS) and 1 ml of C12ELP (1 mg/ml in 0.5×PBS) were prepared and placed in 1.5-ml disposable cuvettes. The temperature of CnELP (n: the number of cysteines in the ELP repeat sequence; n=8/12) was tuned by placing the CnELP-contained cuvette into a Precision 288 Digital Water Bath (Thermo Scientific) and was recalibrated by FLUKE 54 II (Type K) thermometer before absorbance measurement. The absorbance of CnELP was monitored at 610 nm with an UV-visible spectrophotometer (Beckman DU530) immediately after withdrawing the cuvette out of the water bath. The Tt is defined as the temperature at which the absorbance of CnELP solution reaches 50% of the maximum value. The temperature response of the C8ELP and C12ELP indicated Tt values of 31.3 and 30.5° C., respectively.

B1: C8ELP: Elastin-like polypeptide with 8 cysteine residues, SEQ ID NO:1, expressed in E. coli (protein)
chain: MVSACRGPGVGVPGVGVPGVGVPGVGVPGVGVPGVGVPGVGVPGVGVPGVGVPGVGVPGVGVPGVGVPGVGVPGVGVPGVGVPGVGVPGVGVPGVGVPGVGVPGVGVPGVGVPGVGVPGVGVPGVGVPGVGVPGVGVPGVGVPGVGVPGVGVPGVGVPGVGVPGVGVPGVGVPGVGVPGVGVPGVGVPGVGVPGVGVPGVGVPGVGVPGVGVPGVGVPGVGVPGCGVPGVGVPGVGVPGVGVPGVGVPGCGVPGVGVPGVGVPGVGVPGVGVPGCGVPGVGVPGVGVPGVGVPGVGVPGCGVPGVGVPGVGVPGVGVPGVGVPGCGVPGVGVPGVGVPGVGVPGVGVPGCGVPGVGVPGVGVPGVGVPGVGVPGCGVPGVGVPGVGVPGVGVPGVGVPGCGVPGVGVPGWP
modifications: elastin-like polypeptide
Which “Transition temperature (Tt)” value does the source give for B1 here?
Its value is 31.3 °C.

B2: C12ELP: Elastin-like polypeptide with 12 cysteine residues, SEQ ID NO:2, expressed in E. coli (protein)
chain: MVSACRGPGVGVPGVGVPGVGVPGVGVPGVGVPGVGVPGVGVPGVGVPGVGVPGVGVPGVGVPGVGVPGVGVPGVGVPGVGVPGVGVPGVGVPGVGVPGVGVPGVGVPGVGVPGVGVPGVGVPGVGVPGVGVPGVGVPGVGVPGVGVPGVGVPGVGVPGVGVPGVGVPGVGVPGVGVPGVGVPGVGVPGVGVPGVGVPGVGVPGVGVPG
modifications: elastin-like polypeptide
Which “Transition temperature (Tt)” value does the source give for B2 here?
The value was 30.4 °C and 30.5 °C.
